Results: patent US20240383984A1 (Genentech, published 2024)

Tests used:
[1] = biological target: T1, human FcRH3 (full-length, on SVT2 cells) (human, UniProt Q96P31 18-734); assay: flow cytometry, SVT2 cells
T1 construct: whole, on cells; also called SVT2-FcRH3
T1 sequence (looked up): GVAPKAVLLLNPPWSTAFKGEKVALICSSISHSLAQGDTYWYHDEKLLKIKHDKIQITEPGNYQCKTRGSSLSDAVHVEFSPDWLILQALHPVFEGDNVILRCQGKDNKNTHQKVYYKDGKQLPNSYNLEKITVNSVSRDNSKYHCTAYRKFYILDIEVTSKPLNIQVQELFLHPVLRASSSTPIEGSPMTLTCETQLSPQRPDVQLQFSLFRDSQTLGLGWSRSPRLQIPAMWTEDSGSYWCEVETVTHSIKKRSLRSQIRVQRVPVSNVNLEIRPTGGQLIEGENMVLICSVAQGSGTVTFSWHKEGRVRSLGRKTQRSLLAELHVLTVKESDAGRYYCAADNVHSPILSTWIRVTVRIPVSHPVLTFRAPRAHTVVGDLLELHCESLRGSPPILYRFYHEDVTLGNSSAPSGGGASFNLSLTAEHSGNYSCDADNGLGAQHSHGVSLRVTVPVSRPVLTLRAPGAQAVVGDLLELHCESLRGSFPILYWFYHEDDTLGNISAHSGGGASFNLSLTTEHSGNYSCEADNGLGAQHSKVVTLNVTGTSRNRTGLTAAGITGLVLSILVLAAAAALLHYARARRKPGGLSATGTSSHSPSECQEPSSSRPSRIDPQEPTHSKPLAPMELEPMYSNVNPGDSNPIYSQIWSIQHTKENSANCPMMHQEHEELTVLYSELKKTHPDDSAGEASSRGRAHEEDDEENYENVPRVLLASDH
Experimental: (§1) Human FcRH5, cyno FcRH5, human FcRH1, FcRH2, FcRH3, and FcRH4 transfected mouse SVT2 cells were used to test binding and cross-reactivity of FcRH5 TDBs. The method was carried out as follows. Cultured SVT2 cells were lifted using non-enzyme cell dissociation buffer (Sigma, #C5914). 1×10⁵ cells were suspended in 100 μL and incubated with FcRH5 TDBs at 3 μg/ml. […] Cells were washed twice with FACS buffer before flow cytometry analysis was carried out on a FACSCalibur.

[2] = biological target: T2, human FcRH5 (full-length, on cells) (human, UniProt Q96RD9 16-977); assay: flow cytometry, SVT2 cells
T2 construct: Transfected SVT2/293 cells or endogenous expression (MOLP-2, primary cells); also called SVT2-FcRH5; SVT2-huFcRH5
T2 sequence: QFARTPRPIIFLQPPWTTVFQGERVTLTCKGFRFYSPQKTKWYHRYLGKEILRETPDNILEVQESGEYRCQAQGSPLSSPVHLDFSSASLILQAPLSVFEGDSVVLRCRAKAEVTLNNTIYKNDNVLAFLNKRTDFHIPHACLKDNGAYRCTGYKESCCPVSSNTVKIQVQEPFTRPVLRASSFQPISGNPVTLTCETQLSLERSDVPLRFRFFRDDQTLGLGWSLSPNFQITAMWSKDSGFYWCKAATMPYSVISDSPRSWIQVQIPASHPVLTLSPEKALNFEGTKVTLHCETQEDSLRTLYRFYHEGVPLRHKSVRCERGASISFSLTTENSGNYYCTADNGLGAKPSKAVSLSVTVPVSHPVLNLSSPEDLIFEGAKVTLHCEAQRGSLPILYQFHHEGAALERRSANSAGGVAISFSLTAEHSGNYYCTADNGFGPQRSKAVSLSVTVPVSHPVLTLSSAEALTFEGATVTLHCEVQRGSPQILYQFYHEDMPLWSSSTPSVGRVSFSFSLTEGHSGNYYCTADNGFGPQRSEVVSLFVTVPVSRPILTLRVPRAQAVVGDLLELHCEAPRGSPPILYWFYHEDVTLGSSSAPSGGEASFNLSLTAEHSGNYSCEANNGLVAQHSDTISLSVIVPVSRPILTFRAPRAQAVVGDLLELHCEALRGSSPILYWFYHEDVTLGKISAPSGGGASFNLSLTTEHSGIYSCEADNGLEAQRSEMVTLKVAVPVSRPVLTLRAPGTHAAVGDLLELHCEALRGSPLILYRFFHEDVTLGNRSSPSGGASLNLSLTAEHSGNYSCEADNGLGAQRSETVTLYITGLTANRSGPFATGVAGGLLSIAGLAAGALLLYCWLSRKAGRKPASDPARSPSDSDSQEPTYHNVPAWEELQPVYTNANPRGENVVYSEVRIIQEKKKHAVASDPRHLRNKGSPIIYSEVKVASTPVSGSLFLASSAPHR
Experimental: as §1

[3] = biological target: T3, human CD3ε (human, UniProt P07766 23-126, limits assumed); assay: BIACORE and Scatchard, monovalent
T3 construct: also called hCD3ε
T3 sequence (P07766 23-126 limits assumed): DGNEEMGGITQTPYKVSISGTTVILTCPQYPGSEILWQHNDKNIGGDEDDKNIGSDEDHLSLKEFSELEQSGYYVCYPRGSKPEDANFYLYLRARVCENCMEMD

Binder	binding result [1]	binding result [2]	Kd [3] [nM]
hu1G7.v87/38E4.v1 TDB (bispecific antibody, V domains shown, knob-into-hole TDB; also called 1G7.v87 TDB) VH 1: EVQLVESGPGLVKPSETLSLTCTVSGFSLTRFGVHWVRQPPGKGLEWLGVIWRGGSTDYNAAFVSRLTISKDNSKNQVSLKLSSVTAADTAVYYCSNHYYGSSDYALDNWGQGTLVTVSS VL 1: DIQMTQSPSSLSASVGDRVTITCKASQDVSNIVVWFQQKPGKSPKLLIYSASYRYTGVPSRFSGSGSGTDFTLTISSLQPEDFATYYCQQHYSSPYTFGQGTKVEIK VH 2: EVQLVQSGAEVKKPGASVKVSCKASGFTFTSYYIHWVRQAPGQGLEWIGWIYPENDNTKYNEKFKDRVTITADTSTSTAYLELSSLRSEDTAVYYCARDGYSRYYFDYWGQGTLVTVSS VL 2: DIVMTQSPDSLAVSLGERATINCKSSQSLLNSRTRKNYLAWYQQKPGQSPKLLIYWTSTRKSGVPDRFSGSGSGTDFTLTISSLQAEDVAVYYCKQSFILRTFGQGTKVEIK	no binding	binds	–
UCHT1.v9 (antibody, V domains shown, humanized anti-CD3; also called huUCHT1.v9) VH: EVQLVESGGGLVQPGGSLRLSCAASGYSFTGYTMNWVRQAPGKDLEWVALINPYKGVSTYNQKFKDRFTISVDKSKNTAYLQMNSLRAEDTAVYYCARSGYYGDSDWYFDVWGQGTLVTVSS VL: DIQMTQSPSSLSASVGDRVTITCRASQDIRNYLNWYQQKPGKAPKLLIYYTSRLESGVPSRFSGSGSGTDYTLTISSLQPEDFATYYCQQGNTLPWTFGQGTKLELK	–	–	2.5
